The text below walks through data of paper PMC5768788.

This experiment has as its target 14-3-3γ (UniProt P61981). The experiment can be described thus: co-immunoprecipitation and immunoblot. To be noted: reference: wild-type Flag-PP1α; sites S224,T226.

As to PP1α (from UniProt P62136) S224A/T226A, the “binding against the reference” value was “weaker”.
